Measurements: the Human Domainome abundance scans (Beltran et al. 2025)
± gives the uncertainty stated by the source.

B1: POU domain, class 2, transcription factor 1, residues 285 to 354; numbered along this chain, P14859 (parent)
chain: LEELEQFAKTFKQRRIKLGFTQGDVGLAMGKLYGNDFSQTTISRFEALNLSFKNMCKLKPLLEKWLNDAE
B2: Serine/threonine-protein kinase A-Raf, residues 21 to 89; numbered along this chain, P10398 (parent)
chain: VKVYLPNKQRTVVTVRDGMSVYDSLDKALKVRGLNQDCCVVYRLIKGRKTVTAWDTAIAPLDGEELIVE

Variants of: B1
Assay: abundance fitness (aPCA) (normalised: wild type 0, dead -1); higher = more abundant; growth selection in yeast, the domain comes from the species named
Conditions: Homo sapiens
LEELEQFAKTFKQRRIKLGFTQGDVGLAMGKLYGNDFSQTTISRFEALNLSFKNMCKLKPLLEKLLNDAE gave an abundance fitness of -0.305 ± 0.07.
LEELEQFAKTFKQRRIKLGFTQGDVGLAMGKLYGNDFSQTTISRFEALNLSFKNMCKLKPLLEKNLNDAE gave an abundance fitness of -1.05 ± 0.31.
Work on LEELEQFAKTFKQRRIKLGFTQGDVGLAMGKLYGNDFSQTTISRFEALNLSFKNMCKLKPLLEKRLNDAE yielded an abundance fitness of -0.753 ± 0.035.
LEELEQFAKTFKQRRIKLGFTQGDVGLAMGKLYGNDFSQTTISRFEALNLSFKNMCKLKPLLEKSLNDAE gave an abundance fitness of -0.728 ± 0.062.
LEELEQFAKTFKQRRIKLGFTQGDVGLAMGKLYGNDFSQTTISRFEALNLSFKNMCKLKPLLEKYLNDAE gave an abundance fitness of -0.275 ± 0.25.
Variant LEELEQFAKTFKQRRIKLGFTQGDVGLAMGKLYGNDFSQTTISRFEALNLSFKNMCKLKPLLEKMLNDAE has an abundance fitness of -0.22 ± 0.073.
For LEELEQFAKTFKQRRIKLGFTQGDVGLAMGKLYGNDFSQTTISRFEALNLSFKNMCKLKPLLEKWENDAE, the abundance fitness was -0.433 ± 0.039.
LEELEQFAKTFKQRRIKLGFTQGDVGLAMGKLYGNDFSQTTISRFEALNLSFKNMCKLKPLLEKWSNDAE showed an abundance fitness of -0.167 ± 0.039.
LEELEQFAKTFKQRRIKLGFTQGDVGLAMGKLYGNDFSQTTISRFEALNLSFKNMCKLKPLLEKWVNDAE gave an abundance fitness of -0.003 ± 0.023.
In the case of LEELEQFAKTFKQRRIKLGFTQGDVGLAMGKLYGNDFSQTTISRFEALNLSFKNMCKLKPLLEKWHNDAE, the abundance fitness is reported as -0.474 ± 0.11.
LEELEQFAKTFKQRRIKLGFTQGDVGLAMGKLYGNDFSQTTISRFEALNLSFKNMCKLKPLLEKWDNDAE showed an abundance fitness of -0.854 ± 0.073.
With LEELEQFAKTFKQRRIKLGFTQGDVGLAMGKLYGNDFSQTTISRFEALNLSFKNMCKLKPLLEKWINDAE the abundance fitness was -0.017 ± 0.046.
LEELEQFAKTFKQRRIKLGFTQGDVGLAMGKLYGNDFSQTTISRFEALNLSFKNMCKLKPLLEKWQNDAE showed an abundance fitness of -0.279 ± 0.056.
LEELEQFAKTFKQRRIKLGFTQGDVGLAMGKLYGNDFSQTTISRFEALNLSFKNMCKLKPLLEKWYNDAE showed an abundance fitness of -0.11 ± 0.084.
For LEELEQFAKTFKQRRIKLGFTQGDVGLAMGKLYGNDFSQTTISRFEALNLSFKNMCKLKPLLEKWRNDAE, the abundance fitness was -0.667 ± 0.046.
LEELEQFAKTFKQRRIKLGFTQGDVGLAMGKLYGNDFSQTTISRFEALNLSFKNMCKLKPLLEKWTNDAE showed an abundance fitness of -0.206 ± 0.052.
In the case of LEELEQFAKTFKQRRIKLGFTQGDVGLAMGKLYGNDFSQTTISRFEALNLSFKNMCKLKPLLEKWWNDAE, the abundance fitness is reported as -0.355 ± 0.043.
Work on LEELEQFAKTFKQRRIKLGFTQGDVGLAMGKLYGNDFSQTTISRFEALNLSFKNMCKLKPLLEKWKNDAE yielded an abundance fitness of -0.476 ± 0.028.
LEELEQFAKTFKQRRIKLGFTQGDVGLAMGKLYGNDFSQTTISRFEALNLSFKNMCKLKPLLEKWNNDAE showed an abundance fitness of -0.848 ± 0.17.
Variant LEELEQFAKTFKQRRIKLGFTQGDVGLAMGKLYGNDFSQTTISRFEALNLSFKNMCKLKPLLEKWMNDAE has an abundance fitness of 0.01 ± 0.033.
LEELEQFAKTFKQRRIKLGFTQGDVGLAMGKLYGNDFSQTTISRFEALNLSFKNMCKLKPLLEKWFNDAE showed an abundance fitness of -0.258 ± 0.057.
With LEELEQFAKTFKQRRIKLGFTQGDVGLAMGKLYGNDFSQTTISRFEALNLSFKNMCKLKPLLEKWGNDAE the abundance fitness was -0.411 ± 0.033.
LEELEQFAKTFKQRRIKLGFTQGDVGLAMGKLYGNDFSQTTISRFEALNLSFKNMCKLKPLLEKWCNDAE showed an abundance fitness of -0.071 ± 0.068.
For LEELEQFAKTFKQRRIKLGFTQGDVGLAMGKLYGNDFSQTTISRFEALNLSFKNMCKLKPLLEKWANDAE, the abundance fitness was -0.037 ± 0.038.
Variant LEELEQFAKTFKQRRIKLGFTQGDVGLAMGKLYGNDFSQTTISRFEALNLSFKNMCKLKPLLEKWLSDAE has an abundance fitness of -0.054 ± 0.27.
In the case of LEELEQFAKTFKQRRIKLGFTQGDVGLAMGKLYGNDFSQTTISRFEALNLSFKNMCKLKPLLEKWLDDAE, the abundance fitness is reported as 0.024 ± 0.19.
LEELEQFAKTFKQRRIKLGFTQGDVGLAMGKLYGNDFSQTTISRFEALNLSFKNMCKLKPLLEKWLNDAD showed an abundance fitness of -0.029 ± 0.031.
Work on LEELEQFAKTFKQRRIKLGFTQGDVGLAMGKLYGNDFSQTTISRFEALNLSFKNMCKLKPLLEKWLNDAW yielded an abundance fitness of 0.071 ± 0.15.
LEELEQFAKTFKQRRIKLGFTQGDVGLAMGKLYGNDFSQTTISRFEALNLSFKNMCKLKPLLEKWLNDAK gave an abundance fitness of 0.011 ± 0.12.
Work on LEELEQFAKTFKQRRIKLGFTQGDVGLAMGKLYGNDFSQTTISRFEALNLSFKNMCKLKPLLEKWLNDAG yielded an abundance fitness of -0.13 ± 0.26.
LEELEQFAKTFKQRRIKLGFTQGDVGLAMGKLYGNDFSQTTISRFEALNLSFKNMCKLKPLLEKWLNDAP gave an abundance fitness of -0.349 ± 0.23.
LEELEQFAKTFKQRRIKLGFTQGDVGLAMGKLYGNDFSQTTISRFEALNLSFKNMCKLKPLLEKWLNDAS gave an abundance fitness of 0.076 ± 0.22.
With LEELEQFAKTFKQRRIKLGFTQGDVGLAMGKLYGNDFSQTTISRFEALNLSFKNMCKLKPLLEKWLNDAI the abundance fitness was -0.048 ± 0.16.
Work on LEELEQFAKTFKQRRIKLGFTQGDVGLAMGKLYGNDFSQTTISRFEALNLSFKNMCKLKPLLEKWLNDAR yielded an abundance fitness of -0.36 ± 0.32.
In the case of LEELEQFAKTFKQRRIKLGFTQGDVGLAMGKLYGNDFSQTTISRFEALNLSFKNMCKLKPLLEKWLNDAV, the abundance fitness is reported as -0.083 ± 0.087.

Variants of: B2
Assay: as above
Conditions: Homo sapiens
With CKVYLPNKQRTVVTVRDGMSVYDSLDKALKVRGLNQDCCVVYRLIKGRKTVTAWDTAIAPLDGEELIVE the abundance fitness was -0.184 ± 0.28.
For FKVYLPNKQRTVVTVRDGMSVYDSLDKALKVRGLNQDCCVVYRLIKGRKTVTAWDTAIAPLDGEELIVE, the abundance fitness was -0.358 ± 0.21.
EKVYLPNKQRTVVTVRDGMSVYDSLDKALKVRGLNQDCCVVYRLIKGRKTVTAWDTAIAPLDGEELIVE gave an abundance fitness of -0.833 ± 0.22.
With AKVYLPNKQRTVVTVRDGMSVYDSLDKALKVRGLNQDCCVVYRLIKGRKTVTAWDTAIAPLDGEELIVE the abundance fitness was -0.684 ± 0.21.
